# Laboratory results reported in article PMC5835670.
# Target: SbSTOP1d-NT (N-terminal fragment of SbSTOP1d, 1-275 aa, truncated before the zinc finger domain) fused to the GAL4 DNA-binding domain (Sorghum bicolor (sweet sorghum))
# Test: two-hybrid; β-galactosidase assay in yeast strain Y190 with CPRG as substrate, Miller units; BD-SbSTOP1d-NT bait, AD fusion prey
row,Substance,"β-galactosidase activity, fold of the control (times that of the control)"
1,SbSTOP1d fused to the GAL4 activation domain (natural protein),450
2,SbSTOP1b fused to the GAL4 activation domain (natural protein),80
